From the supplement of paper PMC5998384 come the findings set out here.

In data set [1] the test system is HeLa Kyoto. Briefly: solubility in G1/S (NP-40 vs SDS abundance) (log2 ratio); higher = more soluble. The conditions noted are these: cell cycle stage: G1/S.
Data set [2] has as its system HeLa Kyoto. Briefly: solubility change mitosis vs G1/S (difference of NP-40 vs SDS log2 ratios) (log2 ratio difference); higher = more soluble in mitosis.
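Wherever solubility change mitosis vs G1/S (difference of NP-40 vs SDS log2 ratios) is given: synchronized HeLa Kyoto cells (double thymidine block for G1/S, nocodazole release for mitosis), protein amounts in NP-40 versus SDS lysates quantified by mass spectrometry, three biological replicates.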
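Wherever solubility in G1/S (NP-40 vs SDS abundance) is given: HeLa Kyoto cells arrested at G1/S by double thymidine block, proteins quantified by TMT10plex mass spectrometry in mild NP-40 versus SDS extracts, three biological replicates.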

Chain of EPB41L5 (chain, as listed by the source): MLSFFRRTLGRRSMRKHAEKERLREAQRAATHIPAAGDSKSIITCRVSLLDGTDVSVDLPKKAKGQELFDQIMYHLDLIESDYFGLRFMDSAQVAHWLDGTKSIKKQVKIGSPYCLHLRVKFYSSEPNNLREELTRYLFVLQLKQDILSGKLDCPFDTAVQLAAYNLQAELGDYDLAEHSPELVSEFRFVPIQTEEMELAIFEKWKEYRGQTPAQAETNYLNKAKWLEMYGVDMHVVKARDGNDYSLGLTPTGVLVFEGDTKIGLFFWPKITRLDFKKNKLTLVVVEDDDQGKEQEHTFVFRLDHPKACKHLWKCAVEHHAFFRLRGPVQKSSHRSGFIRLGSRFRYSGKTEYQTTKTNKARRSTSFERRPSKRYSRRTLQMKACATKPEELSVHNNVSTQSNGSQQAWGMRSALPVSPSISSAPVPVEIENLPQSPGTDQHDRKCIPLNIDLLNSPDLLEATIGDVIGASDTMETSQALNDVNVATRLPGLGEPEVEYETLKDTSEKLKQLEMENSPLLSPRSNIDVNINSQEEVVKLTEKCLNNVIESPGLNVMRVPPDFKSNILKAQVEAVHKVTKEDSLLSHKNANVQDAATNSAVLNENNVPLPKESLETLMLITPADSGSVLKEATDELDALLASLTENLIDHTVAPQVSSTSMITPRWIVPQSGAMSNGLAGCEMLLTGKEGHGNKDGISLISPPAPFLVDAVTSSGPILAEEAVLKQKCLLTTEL

Take “MDRDLLRQSLNCHGSSLLSLLRSEQQDNPHFRSLLGSAAEPARGPPPQHPLQGRKEKRVDNIEIQKFISKKADLLFALSWKSDAPATSEINEDSEDHYAIMPPLEQFMEIPSMDRRELFFRDIERGDIVIGRISSIREFGFFMVLICLGSGIMRDIAHLEITALCPLRDVPSHSNHGDPLSYYQTGDIIRAGIKDIDRYHEKLAVSLYSSSLPPHLSGIKLGVISSEELPLYYRRSVELNSNSLESYENVMQSSLGFVNPGVVEFLLEKLGIDESNPPSLMRGLQSKNFSEDDFASALRKKQSASWALKCVKIGVDYFKVGRHVDAMNEYNKALEIDKQNVEALVARGALYATKGSLNKAIEDFELALENCPTHRNARKYLCQTLVERGGQLEEEEKFLNAESYYKKALALDETFKDAEDALQKLHKYMQKSLELREKQAEKEEKQKTKKIETSAEKLRKLLKEEKRLKKKRRKSTSSSSVSSADESVSSSSSSSSSGHKRHKKHKRNRSESSRSSRRHSSRASSNQIDQNRKDECYPVPANTSASFLNHKQEVEKLLGKQDRLQYEKTQIKEKDRCPLSSSSLEIPDDFGGRSEDPRDFYNSYKTQAGSSKTEKPYKSERHFSSRRNSSDSFCRNSEDKIYGYRRFEKDIEGRKEHYRRWEPGSVRHSTSPASSEYSWKSVEKYKKYAHSGSRDFSRHEQRYRLNTNQGEYEREDNYGEDIKTEVPEEDALSSKEHSESSVKKNLPQNLLNIFNQIAEFEKEKGNKSKN [TTC14]”: the “solubility in G1/S (log2)” value in the data set on HeLa Kyoto [1] was -0.392. The “solubility change mitosis (log2)” value in the data set with HeLa Kyoto [2] was found to be 0.329.

Consider “MAEAATPGTTATTSGAGAAAATAAAASPTPIPTVTAPSLGAGGGGGGSDGSGGGWTKQVTCRYFMHGVCKEGDNCRYSHDLSDSPYSVVCKYFQRGYCIYGDRCRYEHSKPLKQEEATATELTTKSSLAASSSLSSIVGPLVEMNTGEAESRNSNFATVGAGSEDWVNAIEFVPGQPYCGRTAPSCTEAPLQGSVTKEESEKEQTAVETKKQLCPYAAVGECRYGENCVYLHGDSCDMCGLQVLHPMDAAQRSQHIKSCIEAHEKDMELSFAVQRSKDMVCGICMEVVYEKANPSERRFGILSNCNHTYCLKCIRKWRSAKQFESKIIKSCPECRITSNFVIPSEYWVEEKEEKQKLILKYKEAMSNKACRYFDEGRGSCPFGGNCFYKHAYPDGRREEPQRQKVGTSSRYRAQRRNHFWELIEERENSNPFDNDEEEVVTFELGEMLLMLLAAGGDDELTDSEDEWDLFHDELEDFYDLDL [MKRN1]”, for which the “solubility in G1/S (log2)” value in the data set on HeLa Kyoto [1] worked out at 0.102. For the same substance, in the data set on HeLa Kyoto [2], the “solubility change mitosis (log2)” value is -0.322.

As to “MAGAGRGAAVSRVQAGPGSPRRARGRQQVQPLGKQRPAPWPGLRSKEKKKVNCKPKNQDEQEIPFRLREIMRSRQEMKNPISNKKRKKAAQVTFRKTLEKEAKGEEPDIAVPKFKQRKGESDGAYIHRMQQEAQHVLFLSKNQAIRQPEVQAAPKEKSEQKKAKKAFQKRRLDKVRRKKEEKAADRLEQELLRDTVKFGEVVLQPPELTARPQRSVSKDQPGRRSQMLRMLLSPGGVSQPLTASLARQRIVEEERERAVQAYRALKQRQQQLHGERPHLTSRKKPEPQL [CCDC137]”, the “solubility in G1/S (log2)” value in the data set on HeLa Kyoto [1] is -1.04. In the data set on HeLa Kyoto [2], the “solubility change mitosis (log2)” value is 0.83.

For NISCH, the “solubility in G1/S (log2)” value with HeLa Kyoto [1] is -0.0187. The “solubility change mitosis (log2)” value in the data set on HeLa Kyoto [2] worked out at 0.0432.

Turning to “MDDDKPFQPKNISKMAELFMECEEEELEPWQKKVEETQDEDDDELIFVGEISSSKPAISNILNRGHSSSSSKGIKSEPHSPGIPEIFRTASQRCRDPPSNPVAASPRFHLVSKSSQSSVTVENASKPDFTKNSQVGSDNSSILLFDSTQESLPPSQDIPAIFREGMKNTSYVLKHPSTSKVNSVTPKKPKTSEDVPQINPSTSLPLIGSPPVTSSQVMLSKGTNTSSPYDAGADYLRACPKCNVQFNLLDPLKYHMKHCCPDMITKFLGVIVKSERPCDEDKTDSETGKLIMLVNEFYYGRHEGVTEKEPKTYTTFKCFSCSKVLKNNIRFMNHMKHHLELEKQNNESWENHTTCQHCYRQYPTPFQLQCHIESTHTPHEFSTICKICELSFETEHILLQHMKDTHKPGEMPYVCQVCQFRSSTFSDVEAHFRAAHENTKNLLCPFCLKVSKMATPYMNHYMKHQKKGVHRCPKCRLQFLTSKEKAEHKAQHRTFIKPKELEGLPPGAKVTIRASLGPLQSKLPTAPFGCAPGTSFLQVTPPTSQNTTARNPRKSNASRSKTSKLHATTSTASKVNTSKPRGRIAKSKAKPSYKQKRQRNRKNKMSLALKNIRCRRGIHKCIECHSKIKDFASHFSIYIHCSFCKYNTNCNKAFVNHMMSSHSNHPGKRFCIFKKHSGTLRGITLVCLKCDFLADSSGLDRMAKHLSQRKTHTCQVIIENVSKSTSTSEPTTGCSLK [ZNF280C]”, the “solubility in G1/S (log2)” value in the data set with HeLa Kyoto [1] was -1.44. The “solubility change mitosis (log2)” value in the data set with HeLa Kyoto [2] is 0.796.

As for “MRRDERDAKAMRSLQPPDGAGSPPESLRNGYVKSCVSPLRQDPPRGFFFHLCRFCNVELRPPPASPQQPRRCSPFCRARLSLGALAAFVLALLLGAEPESWAAGAAWLRTLLSVCSHSLSPLFSIACAFFFLTCFLTRTKRGPGPGRSCGSWWLLALPACCYLGDFLVWQWWSWPWGDGDAGSAAPHTPPEAAAGRLLLVLSCVGLLLTLAHPLRLRHCVLVLLLASFVWWVSFTSLGSLPSALRPLLSGLVGGAGCLLALGLDHFFQIREAPLHPRLSSAAEEKVPVIRPRRRSSCVSLGETAASYYGSCKIFRRPSLPCISREQMILWDWDLKQWYKPHYQNSGGGNGVDLSVLNEARNMVSDLLTDPSLPPQVISSLRSISSLMGAFSGSCRPKINPLTPFPGFYPCSEIEDPAEKGDRKLNKGLNRNSLPTPQLRRSSGTSGLLPVEQSSRWDRNNGKRPHQEFGISSQGCYLNGPFNSNLLTIPKQRSSSVSLTHHVGLRRAGVLSSLSPVNSSNHGPVSTGSLTNRSPIEFPDTADFLNKPSVILQRSLGNAPNTPDFYQQLRNSDSNLCNSCGHQMLKYVSTSESDGTDCCSGKSGEEENIFSKESFKLMETQQEEETEKKDSRKLFQEGDKWLTEEAQSEQQTNIEQEVSLDLILVEEYDSLIEKMSNWNFPIFELVEKMGEKSGRILSQVMYTLFQDTGLLEIFKIPTQQFMNYFRALENGYRDIPYHNRIHATDVLHAVWYLTTRPVPGLQQIHNGCGTGNETDSDGRINHGRIAYISSKSCSNPDESYGCLSSNIPALELMALYVAAAMHDYDHPGRTNAFLVATNAPQAVLYNDRSVLENHHAASAWNLYLSRPEYNFLLHLDHVEFKRFRFLVIEAILATDLKKHFDFLAEFNAKANDVNSNGIEWSNENDRLLVCQVCIKLADINGPAKVRDLHLKWTEGIVNEFYEQGDEEANLGLPISPFMDRSSPQLAKLQESFITHIVGPLCNSYDAAGLLPGQWLEAEEDNDTESGDDEDGEELDTEDEEMENNLNPKPPRRKSRRRIFCQLMHHLTENHKIWKEIVEEEEKCKADGNKLQVENSSLPQADEIQVIEEADEEE [PDE3B]”, in the data set with HeLa Kyoto [1], the “solubility in G1/S (log2)” value was -0.122. Further, in the data set on HeLa Kyoto [2], the “solubility change mitosis (log2)” value is -0.0328.

Take “MRSRVLWGAARWLWPRRAVGPARRPLSSGSPPLEELFTRGGPLRTFLERQAGSEAHLKVRRPELLAVIKLLNEKERELRETEHLLHDENEDLRKLAENEITLCQKEITQLKHQIILLLVPSEETDENDLILEVTAGVGGQEAMLFTSEIFDMYQQYAAFKRWHFETLEYFPSELGGLRHASASIGGSEAYRHMKFEGGVHRVQRVPKTEKQGRVHTSTMTVAILPQPTEINLVINPKDLRIDTKRASGAGGQHVNTTDSAVRIVHLPTGVVSECQQERSQLKNKELAMTKLRAKLYSMHLEEEINKRQNARKIQIGSKGRSEKIRTYNFPQNRVTDHRINKTLHDLETFMQGDYLLDELVQSLKEYADYESLVEIISQKV [MTRF1L]”: the “solubility in G1/S (log2)” value with HeLa Kyoto [1] is -0.0262. Moreover, the “solubility change mitosis (log2)” value in the data set on HeLa Kyoto [2] turned out to be 0.288.

For the substance “MASGVGAAFEELPHDGTCDECEPDEAPGAEEVCRECGFCYCRRHAEAHRQKFLSHHLAEYVHGSQAWTPPADGEGAGKEEAEVKVEQEREIESEAGEESESEEESESEEESETEEESEDESDEESEEDSEEEMEDEQESEAEEDNQEEGESEAEGETEAESEFDPEIEMEAERVAKRKCPDHGLDLSTYCQEDRQLICVLCPVIGAHQGHQLSTLDEAFEELRSKDSGGLKAAMIELVERLKFKSSDPKVTRDQMKMFIQQEFKKVQKVIADEEQKALHLVDIQEAMATAHVTEILADIQSHMDRLMTQMAQAKEQLDTSNESAEPKAEGDEEGPSGASEEEDT [TRIM44]”, the “solubility in G1/S (log2)” value in the data set on HeLa Kyoto [1] is -0.118. Further, in the data set with HeLa Kyoto [2], the “solubility change mitosis (log2)” value is -0.202.

As for EVPL, in the data set on HeLa Kyoto [1], the “solubility in G1/S (log2)” value is -0.382. The “solubility change mitosis (log2)” value with HeLa Kyoto [2] worked out at 0.319.

Consider EPB41L5, for which the “solubility in G1/S (log2)” value in the data set on HeLa Kyoto [1] is -0.503. Besides, in the data set with HeLa Kyoto [2], the “solubility change mitosis (log2)” value was 0.268.

With WDR81, the “solubility in G1/S (log2)” value in the data set on HeLa Kyoto [1] was -0.0834. Besides, the “solubility change mitosis (log2)” value with HeLa Kyoto [2] is -0.333.

Regarding “MAAALPRTLGELQLYRILQKANLLSYFDAFIQQGGDDVQQLCEAGEEEFLEIMALVGMASKPLHVRRLQKALRDWVTNPGLFNQPLTSLPVSSIPIYKLPEGSPTWLGISCSSYERSSNAREPHLKIPKCAATTCVQSLGQGKSDVVGSLALQSVGESRLWQGHHATESEHSLSPADLGSPASPKESSEALDAAAALSVAECVERMAPTLPKSDLNEVKELLKTNKKLAKMIGHIFEMNDDDPHKEEEIRKYSAIYGRFDSKRKDGKHLTLHELTVNEAAAQLCVKDNALLTRRDELFALARQISREVTYKYTYRTTKSKCGERDELSPKRIKVEDGFPDFQDSVQTLFQQARAKSEELAALSSQQPEKVMAKQMEFLCNQAGYERLQHAERRLSAGLYRQSSEEHSPNGLTSDNSDGQGERPLNLRMPNLQNRQPHHFVVDGELSRLYPSEAKSHSSESLGILKDYPHSAFTLEKKVIKTEPEDSR [NAB1]”, the “solubility in G1/S (log2)” value in the data set with HeLa Kyoto [1] stood at 0.187. The “solubility change mitosis (log2)” value in the data set with HeLa Kyoto [2] came out at 0.105.
